Assay results: paper PMC6765138 (Nucleic Acids Research, 2019)

Tests used:
crystal structure = molecular target: the molecule itself; assay: crystal structure
SEC = molecular target: the molecule itself; assay: SEC

B1: Se-Met-MtPrpR_(81–486) (selenomethionine-derived MtPrpR_(81–486)) (domain or fragment)
chain: DARLVADLSDVFTDIGVEHAVSGAQIEEFVARMPEVGHSLVAVHRRLRAATEELEGYRSRATAETELPPARPMPFEEVRDFFYDRNNYIHDLDMAAERMFTESGMRTGGLDIQLAELMRDRFGISVVIDDNLPDTAKRRYHPDTKVLRVAHWLMPGQRAFQIATQLALVGQSDLISSIVATDDQLSTEARGVARIGLANYFAGAFLLPYREFHRAAEQLRYDIDLLGRRFGVGFETVCHRLSTLQRPRQRGIPFIFVRTDKAGNISKRQSATAFHFSRVGGSCPLWVVHDAFAQPERIVRQVAQMPDGRSYFWVAKTTAADGLGYLGPHKNFAVGLGCDLAHAHKLVYSTGVVLDDPSTEVPIGAGCKICNRTSCAQRAFPYLGGRVAVDENAGSSLPYSSTEQSV
modifications: selenomethionine incorporated in place of methionine
notes: also called Se-PrpR_(81–486); not shown: His6, N-terminal, kept
stoichiometry N (crystal structure): 4

B2: MtPrpR_(81–486)_F155H variant (domain or fragment)
chain: DARLVADLSDVFTDIGVEHAVSGAQIEEFVARMPEVGHSLVAVHRRLRAATEELEGYRSRATAETELPPARPMPHEEVRDFFYDRNNYIHDLDMAAERMFTESGMRTGGLDIQLAELMRDRFGISVVIDDNLPDTAKRRYHPDTKVLRVAHWLMPGQRAFQIATQLALVGQSDLISSIVATDDQLSTEARGVARIGLANYFAGAFLLPYREFHRAAEQLRYDIDLLGRRFGVGFETVCHRLSTLQRPRQRGIPFIFVRTDKAGNISKRQSATAFHFSRVGGSCPLWVVHDAFAQPERIVRQVAQMPDGRSYFWVAKTTAADGLGYLGPHKNFAVGLGCDLAHAHKLVYSTGVVLDDPSTEVPIGAGCKICNRTSCAQRAFPYLGGRVAVDENAGSSLPYSSTEQSV
notes: also called MtPrpR_(81–486)_F155H mutant; MtRamB-like mutant of MtPrpR; not shown: His6, N-terminal, kept
stoichiometry N (SEC): 4
